By stoichiometry N is commonly meant the number of molecules, sites or subunits per partner or assembly.

“And” between values parts separate entries of the source, which are not always exact repeats. Equal values may be shown once. Read-outs that look alike come from different tables or passages of the source.

Test [1] deals with HBV truncated core protein CP149 dimer (hepatitis B virus). Briefly: SEC + native MS.
For test [2] the target is unchanged. Put plainly: SEC-MALS; SEC-UV-MALS-RI; 7.8 x 300 mm 1000 Å 3 μm column; 20 mM phosphate, 276 mM NaCl, 5.4 mM KCl, pH 7.4 (2x dPBS); flow rates 0.29 and 1.15 mL/min; 20 μL of 2 mg/mL Qβ, 14.4 μL of 0.67 mg/mL HBV VLPs with residual CP149 dimer; dn/dc 0.185 mL/mg. Background: In gel filtration, larger molecules generally elute earlier.
Test [3] deals with bacteriophage Qβ virus-like particles (bacteriophage Qβ). The description is as above.
In test [4] the target is bovine thyroglobulin (bovine) (UniProt P01267). Briefly: SEC + native MS.
Test [5] shares this target. Briefly: SEC + native MS. This is another data set of the same source.

“HBV truncated core protein CP149 dimer (domain or fragment)”: the stoichiometry N in test [1] is 120 CP dimers and 90 CP dimers; in test [2] it was 120 CP dimers and 90 CP dimers.

For “bacteriophage Qβ virus-like particles (complex)”, the stoichiometry N (x the molar mass of peak 3) in test [3] was 4 and 2.

As to bovine thyroglobulin, P01267 20-2769, the stoichiometry N in test [4] is 2; in test [5] it was 4 and 3.

The values are drawn from publication PMC11822739.
